The text below walks through data of patent US20190263899A1 (Novartis, published 2019).

T1: C-terminally 3×FLAG-1×HA-tagged mouse MINION (Mus musculus) (UniProt Q2Q5T5)
T1 sequence: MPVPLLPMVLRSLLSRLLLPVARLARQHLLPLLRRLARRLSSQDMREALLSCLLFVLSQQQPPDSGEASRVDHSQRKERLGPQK

B1: Synaptopodin 2-like protein (protein, UniProt Q8BWB1 1-975, looked up)
Synaptopodin 2-like protein: MGAEEEVQVTLAGGAPWGFRLQGGTEQRKPLQIRRRSQAGRAGLRERDQLLAINGVSCTNFSHASAMTLIDASGRQLVLTVRRVTDEGSVRSPSPGELQVLSPLSPLSPEPPGAPVSQALQPTSLRSPPDSEAYYGETDSDVDGPATQEKPRRTRRRGPARPSLPGAPPDEVYLSDSPAEPAPVKTGSPSQGDSRVSSPSWEEGAALQPPPAEALLLPHGPLRPGPHLIPMVGPVPHPVAEDLTTTYTQKAKQAKLQRAESLQEKSVKEARTKCRTIASLLTAAPNPHSKGVLMFKKRRQRAKKYTLVSFGAAAGTGTEEEDGIPPTSESELDEETFSDARSLTNQSDWDSPYLDMELARAGLGTAESQNSGLGGQLSEVSGRGVQLFEQQRQRVASSSQELAQVGPAAMLNGQSLQSPPRAQSAPPEAAVLPLSPLSVPAVSPTPFFPDGGAPIPAPSIFNRSARPFTPGLQGQRSGTTSVIFRPLAPKKVNEGLGSTSPAPSPFAAPPQGPTPLPSFTTVVPSHTPVSGASSSTQRSSGPVTATSSLYIPAPSRPVTPGGAPEPPTPPSAAAMTSTASIFLSTPLRNSARPEAPGPAVPEPASVREQRISVPAARTGILQEARRRGTRKQMFRPGKEETKNSPNPELLSLVQNLDEKPRAGGAESGPEEDALSLGAEACNFMQPLGGRSYKTLPQVSPKTPPPMAPKTPPPTTPKTPPPVAPKPGSRGLLDGLVNGSTPMVGIPEPPRLQGRGGELFAKRQSRADRYVVEATSGSSLNPGLRPRSPSPTPSLPPSWKYSPNIRAPPPIAYNPLLSPFFPQAARTLPNKAQSQGPRVTPKQGIKALDFMRHQPYQLKTAMFCFDEGSSTPGPTSGPPKTARVQEIRRFSTPAPQPTAEPLAPTVLVPRAATTLDEPIWRAELASTPVPNPDHQESLRSFAAAPSSCGFQVARPRFSATRTGLQAHVWRPGAGHQ
B2: C-terminally 3×FLAG-1×HA-tagged mouse MINION (other)
chain: T1 sequence
notes: Construct of the mouse MINION CDS (84 aa isoform) expressed from the pCIGAR retroviral vector; The AP-MS text only says 'FLAG-tagged Minion'; also called FLAG-tagged Minion; 3F1H-tagged mouse MINION; not shown: C-terminal 3×FLAG-1×HA tag

T2 sequence (P16858 whole entry): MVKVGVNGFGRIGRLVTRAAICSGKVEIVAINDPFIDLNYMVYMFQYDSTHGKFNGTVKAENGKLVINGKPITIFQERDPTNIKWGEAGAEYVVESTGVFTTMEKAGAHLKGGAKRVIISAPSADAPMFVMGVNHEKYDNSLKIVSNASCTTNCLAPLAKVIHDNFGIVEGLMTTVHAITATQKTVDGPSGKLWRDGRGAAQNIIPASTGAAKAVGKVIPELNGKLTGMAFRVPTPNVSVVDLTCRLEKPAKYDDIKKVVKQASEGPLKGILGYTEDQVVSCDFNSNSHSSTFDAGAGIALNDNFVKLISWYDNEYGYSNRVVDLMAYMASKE

One experiment has as its target T1, C-terminally 3×FLAG-1×HA-tagged mouse MINION (Mus musculus). Briefly: AP-MS, FLAG-tagged Minion bait, differentiating C2C12 myoblasts.
In turn, “Apolipoprotein O-like (from UniProt Q78IK4 28-265)” came in with a Sequence Coverage (%) of 49% and a Unique Peptide of 9.

Consider “NADH dehydrogenase [ubiquinone] 1 alpha subcomplex subunit 10, mitochondrial (from UniProt Q99LC3 36-355) (enzyme)”, for which the Sequence Coverage (%) came out at 24% and the Unique Peptide was 7.

“Nascent polypeptide-associated complex subunit alpha, muscle-specific form (from UniProt P70670 1-2187)” showed a Sequence Coverage (%) of 18% and a Unique Peptide of 23.

As for “DnaJ homolog subfamily C member 16 (from UniProt Q80TN4 26-772)”, the Sequence Coverage (%) was 19% and the Unique Peptide is 9.

The molecule Dysferlin (from UniProt Q9ESD7 1-2090) came in with a Sequence Coverage (%) of 13% and a Unique Peptide of 17.

“Cluster of Guanine nucleotide-binding protein G(s) subunit alpha isoforms short” gave a Sequence Coverage (%) of 34% and a Unique Peptide of 9.

“Trifunctional enzyme subunit alpha, mitochondrial (from UniProt Q8BMS1 37-763)”: the Sequence Coverage (%) turned out to be 66% and the Unique Peptide was found to be 33.

On to “Eukaryotic initiation factor 4A-II (from UniProt P10630 1-407)”, for which the Sequence Coverage (%) turned out to be 53% and the Unique Peptide was found to be 9.

Take “Trifunctional enzyme subunit beta, mitochondrial (from UniProt Q99JY0 35-475)”: the Sequence Coverage (%) amounted to 68% and the Unique Peptide was 22.

The molecule “Cytoplasmic dynein 1 heavy chain 1 (from UniProt Q9JHU4 2-4644)” displayed a Sequence Coverage (%) of 46% and a Unique Peptide of 157.

The molecule “Acetolactate synthase-like protein (from UniProt Q8BU33 1-632) (enzyme)” displayed a Sequence Coverage (%) of 32% and a Unique Peptide of 10.

The molecule Syntaxin-8 (from UniProt O88983 1-236) returned a Sequence Coverage (%) of 19% and a Unique Peptide of 4.

Turning to “Inositol 1,4,5-trisphosphate receptor type 3 (from UniProt P70227 1-2670)”, the Sequence Coverage (%) was found to be 6% and the Unique Peptide came to 11.

“Cytochrome b-c1 complex subunit 1, mitochondrial (from UniProt Q9CZ13 35-480)” yielded a Sequence Coverage (%) of 41% and a Unique Peptide of 13.

The molecule “Junctional sarcoplasmic reticulum protein 1 (from UniProt Q3MI48 1-332)” yielded a Sequence Coverage (%) of 53% and a Unique Peptide of 8.

In turn, “Calcium uniporter protein, mitochondrial (from UniProt Q3UMR5 50-350)” gave a Sequence Coverage (%) of 38% and a Unique Peptide of 12.

“Aldehyde dehydrogenase family 3 member B1 (from UniProt Q80VQ0 1-465) (enzyme)” came in with a Sequence Coverage (%) of 46% and a Unique Peptide of 15.

“Cytoskeleton-associated protein 5 (from UniProt A2AGT5 1-2032)”: the Sequence Coverage (%) was 8% and the Unique Peptide worked out at 13.

As to “NADH dehydrogenase [ubiquinone] flavoprotein 1, mitochondrial (from UniProt Q91YT0 21-464) (enzyme)”, the Sequence Coverage (%) stood at 24% and the Unique Peptide came to 7.

“Tripartite motif-containing protein 72 (from UniProt Q1XH17 1-477)” displayed a Sequence Coverage (%) of 55% and a Unique Peptide of 16.

Regarding “T-complex protein 1 subunit beta (from UniProt P80314 2-535)”, the Sequence Coverage (%) was 55% and the Unique Peptide stood at 20.

“Adenylate kinase isoenzyme 4, mitochondrial (from UniProt Q9WUR9 1-223)”: the Sequence Coverage (%) is 52% and the Unique Peptide was found to be 6.

“Very long-chain specific acyl-CoA dehydrogenase, mitochondrial (from UniProt P50544 42-656) (enzyme)” registered a Sequence Coverage (%) of 57% and a Unique Peptide of 26.

“B-cell receptor-associated protein 31 (from UniProt Q61335 2-245)” returned a Sequence Coverage (%) of 27% and a Unique Peptide of 7.

For the molecule “Calsequestrin-2 (from UniProt O09161 20-415)”, the Sequence Coverage (%) amounted to 24% and the Unique Peptide is 9.

“Coproporphyrinogen-III oxidase, mitochondrial (from UniProt P36552 99-443) (enzyme)” returned a Sequence Coverage (%) of 52% and a Unique Peptide of 19.

The molecule “Voltage-dependent anion-selective channel protein 1 (from UniProt Q60932 1-296)” displayed a Sequence Coverage (%) of 15% and a Unique Peptide of 10.

“Isovaleryl-CoA dehydrogenase, mitochondrial (from UniProt Q9JHI5 31-424) (enzyme)” displayed a Sequence Coverage (%) of 49% and a Unique Peptide of 16.

As for “T-complex protein 1 subunit theta (from UniProt P42932 2-548)”, the Sequence Coverage (%) is 48% and the Unique Peptide is 22.

In turn, “ATP synthase subunit beta, mitochondrial (from UniProt P56480 47-529) (enzyme)” had a Sequence Coverage (%) of 77% and a Unique Peptide of 26.

Molecule T-complex protein 1 subunit alpha registered a Sequence Coverage (%) of 52% and a Unique Peptide of 20.

Consider “NADH-ubiquinone oxidoreductase 75 kDa subunit, mitochondrial (from UniProt Q91VD9 24-727) (enzyme)”, for which the Sequence Coverage (%) worked out at 20% and the Unique Peptide was determined as 9.

As to “Vacuolar protein sorting-associated protein 45 (from UniProt P97390 1-570)”, the Sequence Coverage (%) was found to be 15% and the Unique Peptide came out at 7.

“Sorbin and SH3 domain-containing protein 2 (from UniProt Q3UTJ2 1-1180)” had a Sequence Coverage (%) of 7% and a Unique Peptide of 6.

The molecule “ATPase family AAA domain-containing protein 1 (from UniProt Q9D5T0 1-361) (enzyme)” had a Sequence Coverage (%) of 30% and a Unique Peptide of 7.

“Cluster of Myc box-dependent-interacting protein 1 (from UniProt O08539 2-588)”: the Sequence Coverage (%) turned out to be 42% and the Unique Peptide is 16.

Consider “Signal recognition particle 68 kDa protein (from UniProt Q8BMA6 1-625)”, for which the Sequence Coverage (%) worked out at 25% and the Unique Peptide amounted to 11.

In turn, B1 came in with a Sequence Coverage (%) of 8% and a Unique Peptide of 5.

Another experiment has as its target T2, Gapdh (mouse, UniProt P16858 1-333).
T2 construct: also called glyceraldehyde-3-phosphate dehydrogenase
As to the kind of experiment: Western blot of the FLAG-tagged Minion affinity purification. In general terms: In western blotting, separated proteins are transferred to a membrane and probed.
For B2, the binding result was “no binding”.
